# Results from patent US20110311523A1.
# Target: human platelet derived growth factor-α receptor (PDGFRα) (human) (UniProt P16234)
# Test: cell-based or functional assay
# Chain of human platelet derived growth factor-α receptor (PDGFRα) (human) (P16234 24-1089): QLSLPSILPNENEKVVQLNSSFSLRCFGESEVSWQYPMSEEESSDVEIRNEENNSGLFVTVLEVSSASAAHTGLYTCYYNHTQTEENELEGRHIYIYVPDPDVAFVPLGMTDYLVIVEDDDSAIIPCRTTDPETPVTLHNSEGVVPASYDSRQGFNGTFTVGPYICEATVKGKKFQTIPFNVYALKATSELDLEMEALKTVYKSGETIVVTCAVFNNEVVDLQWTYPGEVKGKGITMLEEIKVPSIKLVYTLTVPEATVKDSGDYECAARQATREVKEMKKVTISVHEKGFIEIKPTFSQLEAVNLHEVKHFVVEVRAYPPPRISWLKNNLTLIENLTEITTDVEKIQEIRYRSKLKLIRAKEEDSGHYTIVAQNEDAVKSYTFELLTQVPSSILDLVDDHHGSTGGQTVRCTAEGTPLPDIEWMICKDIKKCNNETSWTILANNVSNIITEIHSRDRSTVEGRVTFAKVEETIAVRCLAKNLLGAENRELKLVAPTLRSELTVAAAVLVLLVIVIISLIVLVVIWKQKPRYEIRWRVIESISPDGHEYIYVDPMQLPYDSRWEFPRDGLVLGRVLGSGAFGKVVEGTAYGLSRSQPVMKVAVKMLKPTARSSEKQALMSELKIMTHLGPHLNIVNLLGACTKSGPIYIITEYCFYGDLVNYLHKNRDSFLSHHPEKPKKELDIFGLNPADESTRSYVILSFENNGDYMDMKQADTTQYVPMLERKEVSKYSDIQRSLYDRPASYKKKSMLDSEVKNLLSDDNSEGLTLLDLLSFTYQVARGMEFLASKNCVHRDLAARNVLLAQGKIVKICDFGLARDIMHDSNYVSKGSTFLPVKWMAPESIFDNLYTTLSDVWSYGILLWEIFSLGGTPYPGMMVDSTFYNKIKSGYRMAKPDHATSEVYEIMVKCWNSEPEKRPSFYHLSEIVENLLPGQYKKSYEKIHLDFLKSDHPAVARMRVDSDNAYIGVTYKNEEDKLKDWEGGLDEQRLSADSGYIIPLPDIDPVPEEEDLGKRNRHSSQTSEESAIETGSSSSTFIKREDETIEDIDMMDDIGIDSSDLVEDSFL
row,Substance,decrease in HCMV entry (pp65 positive cells) [%]
1,PDGF-AA (from UniProt P04085 87-211) (ligand),30
2,"IMC-3G3, a humanized PDGFRα blocking antibody (ImClone Inc.)",45
